Measurements taken from US20160024210A1 (AstraZeneca / MedImmune, published 2016).
Substitutions are numbered along the chain they refer to.

T1: human H7CR (B7-H7 counter-receptor) (human, UniProt Q96BF3 23-282)
T1 construct: Used for H7CR on CHO.hH7CR transfectants, human T cells and tonsil tissue; also called B7-H7CR; CD28H
T1 sequence: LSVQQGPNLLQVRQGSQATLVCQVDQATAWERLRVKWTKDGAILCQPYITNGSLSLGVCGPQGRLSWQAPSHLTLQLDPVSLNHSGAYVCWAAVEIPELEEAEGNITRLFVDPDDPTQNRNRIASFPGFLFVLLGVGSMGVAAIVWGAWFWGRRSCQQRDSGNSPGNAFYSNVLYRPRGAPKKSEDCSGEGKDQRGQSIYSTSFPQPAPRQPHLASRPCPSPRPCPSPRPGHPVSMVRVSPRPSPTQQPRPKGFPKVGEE

T2: H7CRECD human IgG1 Fc fusion protein (human, UniProt Q96BF3 23-150)
T2 construct: also called H7CR fusion protein; not shown: human IgG1 Fc
T2 sequence: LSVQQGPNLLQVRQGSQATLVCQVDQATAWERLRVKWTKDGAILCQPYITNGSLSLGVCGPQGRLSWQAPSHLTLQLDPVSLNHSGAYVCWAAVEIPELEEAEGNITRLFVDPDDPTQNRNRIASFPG

T3: H7CR-GFP fusion protein on transfected CHO cells (Homo sapiens (Human), UniProt Q96BF3 23-282)
T3 construct: not shown: GFP part
T3 sequence: T1 sequence

B1: hamster anti-human H7CR antibody clone 7.8 (antibody, V domains shown)
VH: QIQLQESGPGLVKPSQSLSLTCSVTGFSITTGGYYWNWIRQFPGKKLEWMGYIYSSGRTSYNPSLKSRISITRDTSKNQFFLQLNSVTTEDTATYYCADMADKGGWFDYWGQGTLVTVSS
VL: DIVMTQSPSSLTVSAGEKVTISCLSSQSLFSSNTNRNYLSWYLQRPGQSPKLLIYHASTRLTGVPGRFIGSGSGTDFTLTVSTVQAGDLGDYFCQQHYVTPLTFGDGTRLEIK
notes: Hamster monoclonal antibody; also called H7CR7.8
B2: human IgG4 Fc chimeric 1.3 antibody (antibody, V domains shown)
VH: QIQLQESGPGLVKPSQSLSLTCSVTGFSISTSGYYWTWIRQFPGKRLEWMGYINYGGGTSYNPSLKSRISITRDTSKNQFLLHLNSVTTEDTATYCCATMADRFAFFDVWGQGIQVTVSS
VL: DIVMTQSPSSLAVSAGEKVTISCLSSQSLFSSNTNRNYLNWYLQKPGQSPKLLIYHASTRLTGVPDRFIGSGSGTDFTLTISSVQAEDLGDYYCQHHYETPLTFGDGTKLEIKR
notes: also called parental chimeric 1.3 antibody
B3: 1.3 humanized variant V8 (heavy 1C / light 1B) (antibody, V domains shown)
VH: QVQLQESGPGLVKPSQTLSLTCTVSGFSISTSGYYWSWIRQFPGKRLEWMGYINYGGGTSYNPSLKSRVTISRDTSKNQFSLKLSSVTAADTATYCCATMADRFAFFDVWGQGTMVTVSS
VL: DIVMTQSPDSLAVSLGERATINCKSSQSLFSSNTNRNYLNWYQQKPGQSPKLLIYHASTRLSGVPDRFSGSGSGTDFTLTISSLQAEDVADYYCQHHYETPLTFGDGTKLEIK
notes: Variable domains only; detected with anti-human IgG4 HRP
B4: 1.3 humanized variant V1 (heavy 1A / light 1A) (antibody, V domains shown)
VH: B3 VH with F42H, R46G, M50I, S60Y, R73V, T94V, C96Y
VL: B3 VL with N40A, S49P, L61E, D91V, D106Q
notes: Variable domains only; detected with anti-human IgG4 HRP; also called VI; variant 1
B5: 1.3 humanized variant V2 (heavy 1B / light 1A) (antibody, V domains shown)
VH: B3 VH with F42H, M50I, T94V
VL: B3 VL with N40A, S49P, L61E, D91V, D106Q
notes: as for B3
B6: 1.3 humanized variant V3 (heavy 1C / light 1A) (antibody, V domains shown)
VH: B3 VH
VL: B3 VL with N40A, S49P, L61E, D91V, D106Q
notes: as for B3
B7: 1.3 humanized variant V5 (heavy 2B / light 1A) (antibody, V domains shown)
VH: B3 VH with S15A, F42Y, M50I, S85T
VL: B3 VL with N40A, S49P, L61E, D91V, D106Q
notes: as for B3
B8: 1.3 humanized variant V6 (heavy 2C / light 1A) (antibody, V domains shown)
VH: B3 VH with S15A, S85T
VL: B3 VL with N40A, S49P, L61E, D91V, D106Q
notes: as for B3
B9: 1.3 humanized variant V7 (heavy 1B / light 1B) (antibody, V domains shown)
VH: B3 VH with F42H, M50I, T94V
VL: B3 VL
notes: as for B3
B10: 1.3 humanized variant V9 (heavy 2B / light 1B) (antibody, V domains shown)
VH: B3 VH with S15A, F42Y, M50I, S85T
VL: B3 VL
notes: as for B3
B11: 1.3 humanized variant V10 (heavy 2C / light 1B) (antibody, V domains shown)
VH: B3 VH with S15A, S85T
VL: B3 VL
notes: as for B3
B12: 1.3 humanized variant V11 (heavy 1B / light 1C) (antibody, V domains shown)
VH: B3 VH with F42H, M50I, T94V
VL: B3 VL with K24L, Q43L, S69I, A90G
notes: as for B3
B13: 1.3 humanized variant V12 (heavy 1C / light 1C) (antibody, V domains shown)
VH: B3 VH
VL: B3 VL with K24L, Q43L, S69I, A90G
notes: as for B3
B14: 1.3 humanized variant V13 (heavy 2B / light 1C) (antibody, V domains shown)
VH: B3 VH with S15A, F42Y, M50I, S85T
VL: B3 VL with K24L, Q43L, S69I, A90G
notes: as for B3
B15: 1.3 humanized variant V14 (heavy 2C / light 1C) (antibody, V domains shown)
VH: B3 VH with S15A, S85T
VL: B3 VL with K24L, Q43L, S69I, A90G
notes: as for B3
B16: 1.3 humanized variant V4 (heavy 2A / light 1A) (antibody, V domains shown)
VH: B3 VH with S15A, F42Y, R46G, M50I, S60Y, R73V, S85T, T94V, C96H
VL: B3 VL with N40A, S49P, L61E, D91V, D106Q
notes: as for B3
B17: chimeric 4.5 antibody (antibody, human IgG4 S228P, kappa, V domains shown)
VH: B1 VH with S55T, V87M, D108A
VL: B2 VL with N35K, D66G, I81V, S83T, Y93F, H96Q, K109R
B18: 4.5 humanized variant 1 (HC1-1 / LC1-1) (antibody, V domains shown)
VH: QVQLQESGPGLVKPSQTLSLTCTVSGFSITTGGYYWSWIRQHPGKGLEWIGYIYTSGRTYYNPSLKSRVTISVDTSKNQFSLKLSSVTAADTAVYYCADMADKGGWFAYWGQGTLVTVSS
VL: B3 VL with N35K, N40A, S49P, L61E, D91V, H96Q, D106Q, K109R
notes: Variable domains only; detected with anti-hIg secondary; also called VH1A / VL1A
B19: 4.5 humanized variant 2 (HC1-1 / LC1-2) (antibody, V domains shown)
VH: B18 VH
VL: B3 VL with N35K, S49P, Y93F, H96Q, K109R
notes: Variable domains only; detected with anti-hIg secondary; also called VH1A / VL1B
B20: 4.5 humanized variant 3 (HC1-1 / LC1-3) (antibody, V domains shown)
VH: B18 VH
VL: B3 VL with K24L, N35K, Y93F, H96Q, K109R
notes: Variable domains only; detected with anti-hIg secondary; also called VH1A / VL1C

Target: T1, human H7CR (B7-H7 counter-receptor)
Test: flow cytometry, 5 µg/ml mAb on H7CR CHO stable transfectants [C]
Protocol: 5 μg/ml H7CR 1.3, 4.5 and 7.8 mAbs was used to stain H7CR stable transfectants to show binding specificity (FIG. 4). 10 μg/ml B7-H7mIg fusion protein was also used to stain H7CR CHO transfectants. H7CR mAbs were added to the system to evaluate the blocking capability of H7CR mAbs on B7-H7-H7CR interactions (FIG. 5). Immunohistochemistry staining for H7CR on human tonsil paraffin-embedded section was performed with 4.5 antibody at a concentration of 5 μg/ml using a standard protocol (FIG. 6). For cell surface staining and analysis by flow cytometry, cells were incubated with the indicated mAb for 30 min at 4° C., washed with buffer and analyzed. Expression of H7CR on human and mouse PBMC was evaluated by lineage marker and 1.3 antibody staining (FIG. 7-11). Expression of B7-H7 on activated monocyte-derived DC was evaluated by anti-B7-H7 antibody staining (FIG. 12).

Binder	binding result
B1	binds

Target: T2, H7CRECD human IgG1 Fc fusion protein
Test: ELISA, H7CRECD human IgG1 Fc immobilized, anti-human IgG4 HRP detection
Protocol: 100 μl 1 μg/ml H7CRECD human IgG1 Fc fusion protein diluted in PBS was immobilized on flat bottom 96 well plate (Costar 9017) overnight at 4° C. Plates were washed twice with PBS+0.1% PS-20 and blocked with 200 μl/well PBS 10% FBS at RT for 1 hr. 100 μl human IgG4 Fc chimeric 1.3 and 14 selected 1.3 humanized variants diluted in PBS 10% FBS were added to each well and incubated at RT for 1 hr. Plates were washed three times and 100 μl 1 μg/ml anti-human IgG4 HRP (Southern Biotech) was added to each well and incubated at RT for 1 hr. Plates were washed six times and 100 μl TMB substrate (SurModics) was added to each well for 5-15 mins. 100 μl stop solution (0.1M Sulfuric acid) was added to each well. Plates were read at Absorbance 450 nm by PerkinElmer EnVision 2104 Multilabel Reader.

Binder	EC50
B2	0.055 nM
B3	0.74 nM
B4	0.84 nM
B5	0.23 nM
B6	0.38 nM
B7	0.28 nM
B8	0.3 nM
B9	1.01 nM
B10	2.43 nM
B11	1.18 nM
B12	1.04 nM
B13	0.75 nM
B14	0.45 nM
B15	0.32 nM
B16	1.08 nM

Target: T1, human H7CR (B7-H7 counter-receptor)
Test: flow cytometry, MFI against antibody concentration on human naive CD4+CD45RA+ T cells, anti-hIg PE secondary antibody, one-site specific binding fit
Protocol: (§1) A serial dilution of chimeric 1.3 and 4.5 of 0, 0.1 ng, 0.3 ng, 1 ng, 3 ng, 10 ng, 30 ng, 100 ng, 300 ng, 1 μg, 3 μg and 10 μg were added to the cells and incubated at 4° C. for 30 min. Cells were then washed twice with 2 ml flow cytometry buffer, and resuspended in 100 μl flow cytometry buffer. 1 μl anti-hIg PE secondary antibody (Biolegend) was added and incubated with the cells for 15 mins Samples were then washed and resuspended in 100 μl flow cytometry buffer. Flow Cytometry data was acquired using BD Canto (BD Biosciences) in plate format and analyzed by FlowJo software. Staining data (MFI) was then input into Prism 5 software to generate binding curve. Curve-fit using one-site specific binding algorithm calculates individual KD for each antibody.

Binder	Kd
B2	24 nM
B17	6.9 nM

Target: T1, human H7CR (B7-H7 counter-receptor)
Test: binding to human H7CR as endogenously expressed on the surface of a cell

Binder	binding result
B18	binds
B19	binds
B20	binds

Target: T3, H7CR-GFP fusion protein on transfected …
Test: flow cytometry, 5 µg/ml variant on H7CR-GFP transfected CHO cells, anti-hIg PE secondary antibody [row HC1-1, column LC1-1]
Protocol: (§2) 5 μg/ml antibodies from thirty-six variants were incubated with H7CR-GFP fusion protein transfected CHO cells for 30 min at room temperature. Cells were then washed twice with 2 ml flow cytometry buffer, and resuspended in 100 μl flow cytometry buffer. 1 μl anti-hIg PE secondary antibody (Biolegend) was added and incubated with the cells for 15 mins Samples were then washed and resuspended in 100 μl flow cytometry buffer. Flow Cytometry data was acquired using BD Canto (BD Biosciences) in plate format and analyzed by FlowJo software.

Binder	binding result
B18	binds

Target: T1, human H7CR (B7-H7 counter-receptor)
Test: flow cytometry, MFI against antibody concentration on human naive CD8+CD45RA+ T cells, anti-hIg PE secondary antibody, one-site specific binding fit
Protocol: as §1

Binder	Kd
B2	27 nM
B17	6.9 nM

Target: T1, human H7CR (B7-H7 counter-receptor)
Test: flow cytometry titration on CHO.hH7CR transfectants, one-site specific binding fit of MFI
Protocol: as §1

Binder	Kd
B2	5.9 nM
B17	3.5 nM

Target: T3, H7CR-GFP fusion protein on transfected …
Test: flow cytometry, 5 µg/ml variant on H7CR-GFP transfected CHO cells, anti-hIg PE secondary antibody [row HC1-1, column LC1-2]
Protocol: as §2

Binder	binding result
B19	binds

Target: T3, H7CR-GFP fusion protein on transfected …
Test: flow cytometry, 5 µg/ml variant on H7CR-GFP transfected CHO cells, anti-hIg PE secondary antibody [row HC1-1, column LC1-3]
Protocol: as §2

Binder	binding result
B20	binds
